Measured values published in paper doi:10.1101/2021.02.17.431740.

How the values were obtained:
[1] = target: HA-tagged PEAK3 SH3(1) mutant (DKO MCF-10A cells) (UniProt Q6ZS72); assay: co-IP
[2] = target: HA-tagged PEAK3 Y24 mutant (SH2 binding motif mutant; DKO MCF-10A cells) (UniProt Q6ZS72); assay: co-IP

Sequence of PYK2 (MCF-10A cells) (Q14289 whole entry): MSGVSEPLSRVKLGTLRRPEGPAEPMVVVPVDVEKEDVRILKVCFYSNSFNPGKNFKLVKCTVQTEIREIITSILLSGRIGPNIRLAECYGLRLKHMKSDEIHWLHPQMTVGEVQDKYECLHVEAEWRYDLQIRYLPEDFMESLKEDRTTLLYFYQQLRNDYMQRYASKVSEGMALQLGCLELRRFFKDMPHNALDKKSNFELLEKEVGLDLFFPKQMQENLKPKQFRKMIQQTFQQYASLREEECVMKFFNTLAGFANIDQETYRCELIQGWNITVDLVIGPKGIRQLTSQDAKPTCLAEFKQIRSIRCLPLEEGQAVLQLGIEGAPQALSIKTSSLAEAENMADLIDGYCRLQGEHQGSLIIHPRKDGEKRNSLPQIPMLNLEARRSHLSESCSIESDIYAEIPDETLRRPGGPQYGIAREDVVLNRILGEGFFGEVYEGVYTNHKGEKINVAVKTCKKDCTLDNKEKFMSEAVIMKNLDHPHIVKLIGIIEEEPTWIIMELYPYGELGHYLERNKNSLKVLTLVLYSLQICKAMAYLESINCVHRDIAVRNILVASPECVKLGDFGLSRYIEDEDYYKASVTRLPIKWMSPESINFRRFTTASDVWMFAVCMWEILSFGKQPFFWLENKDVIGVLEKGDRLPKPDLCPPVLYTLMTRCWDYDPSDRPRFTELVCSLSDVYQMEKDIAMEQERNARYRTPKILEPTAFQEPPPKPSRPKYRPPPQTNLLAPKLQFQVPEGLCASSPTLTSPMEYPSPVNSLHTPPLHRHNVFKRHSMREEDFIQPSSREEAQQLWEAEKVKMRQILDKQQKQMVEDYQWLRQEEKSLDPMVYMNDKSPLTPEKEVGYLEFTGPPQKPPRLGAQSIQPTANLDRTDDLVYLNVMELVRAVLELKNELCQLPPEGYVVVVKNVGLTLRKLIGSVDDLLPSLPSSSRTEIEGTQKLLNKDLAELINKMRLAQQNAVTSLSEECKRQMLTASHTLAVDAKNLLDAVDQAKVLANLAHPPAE
Sequence of CrkII (MCF-10A cells) (P46108 whole entry): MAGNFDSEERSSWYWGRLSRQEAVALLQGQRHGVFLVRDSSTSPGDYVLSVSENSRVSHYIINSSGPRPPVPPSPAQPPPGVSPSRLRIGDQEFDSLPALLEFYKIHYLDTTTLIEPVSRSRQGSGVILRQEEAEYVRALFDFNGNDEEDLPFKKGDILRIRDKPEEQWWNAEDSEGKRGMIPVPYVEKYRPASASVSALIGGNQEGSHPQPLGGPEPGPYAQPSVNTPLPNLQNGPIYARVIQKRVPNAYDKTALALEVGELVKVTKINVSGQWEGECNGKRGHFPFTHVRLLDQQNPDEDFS

Row | Substance | recruitment relative to WT PEAK3 [1] | association relative to WT PEAK3 (control) [2]
1 | PYK2 (MCF-10A cells) (from UniProt Q14289 1-1009) (natural protein) | 50% | –
2 | CrkII (MCF-10A cells) (from UniProt P46108-1 1-304) (natural protein) | – | 40 % of control
